This note sets out measurements from patent publication US20240252686A1 (SKYLINE THERAPEUTICS, published 2024).

In assay [1] the target is T1, VEGFA-165 (R&D systems 293-VE/CF) (human, UniProt P15692-4 27-191).
T1 construct: Coated on ELISA plates or added in solution to reporter cells; also called human VEGF; human VEGFA
Briefly: ELISA as in Example 5, VEGFA-165 coated, anti-HA detection. Here is the method: (§1) After removing the blocker, the primary antibody (rabbit anti-HA, Thermo, PA1-985) was diluted (1:5000) with the blocking buffer (StartingBlock™ T20 (TBS) Blocking Buffer, Catalog number: 37543 of Thermo Fisher Scientific), and added to ELISA plate (50 μl/well), followed by the incubation at RT for 1h with 250 rpm gentle shaking. After washing with 1×TBST buffer for 3 times, the secondary antibody (Goat anti-rabbit-HRP, Invitrogen, 3146) was diluted (1:5000) with the blocking buffer, and added to the ELISA plate (50 μl/well), followed by the incubation at RT for 1h with gentle shaking. After washing the ELISA plate with 1×TBST for 3 times, the TMB substrate (Thermo Scientific, REF34028) was added the plate (50 μl/well); after the incubation at RT for 5-10 min, 2M H₂SO₄ was added to stop the TMB reaction. OD450 and OD525 of the ELISA plate were detected.
(In general: An ELISA detects its analyte on a solid surface through an enzyme-linked reagent.)

In assay [2] the target is T1, VEGFA-165 (R&D systems 293-VE/CF). Briefly: competitive ELISA as in Example 7: inhibition of VEGFR2/KDR Fc binding to coated VEGFA-165. Here is the method: After removing the blocker, the detection antibody (rabbit anti-human FC HRP, Thermo) diluted 1:5000 with the blocking buffer, and added 50 μl/well incubated at RT for 1h with 250 rpm gentle shaking. After washing the ELISA plate with 1×TBST for 3 times, the TMB substrate was added the plate (50 μl/well); after the incubation at RT for 5-10 min, 2M H₂SO₄ was added to stop the TMB reaction. OD450 and OD525 of the ELISA plate were detected.
The mono-valent and bi-valent Nb24s in the supernatants were quantified by western blot as described in Example 2, and diluted to a series of concentrations.

Assay [3] shares this target. Briefly: ELISA, VEGFA-165 coated, supernatant, anti-HA detection. Here is the method:
as §1

T1 sequence (P15692 other isoform, or with tags, fused parts or gaps limits assumed): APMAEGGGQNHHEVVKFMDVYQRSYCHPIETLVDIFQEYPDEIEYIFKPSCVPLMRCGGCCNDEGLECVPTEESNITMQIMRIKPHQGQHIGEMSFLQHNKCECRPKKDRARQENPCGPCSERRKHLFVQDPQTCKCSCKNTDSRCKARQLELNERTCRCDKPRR

B1: bi-valent Nb24, product expressed by pGCB108-ITR130-AMDF1Nb24-5-(G4S)1-Nb24-5-HA (VHH)
chain: EVQLQESGGGLVQPGGSLRLSCTASGFTFDDPDVGWFRQAPGNECELVSTISKDGSTYYTDSVKGRFTISRDYAKNTVYLQMNSLRAEDTAVYYCAADSNPIAPIRTCLGWYNYWGQGTLVTVSSGGGGSEVQLQESGGGLVQPGGSLRLSCTASGFTFDDPDVGWFRQAPGNECELVSTISKDGSTYYTDSVKGRFTISRDYAKNTVYLQMNSLRAEDTAVYYCAADSNPIAPIRTCLGWYNYWGQGTLVTVSSYPYDVPDYA
notes: Two copies of Nb24 in a single polypeptide; supernatant of transfected Expi293 cells; also called 24-5-G4S1-24-5
In general, EC50 refers to the concentration needed to bring the measured effect to its halfway point. Molecule B1 had an EC50 in assay [1] of 400 nM.

B2: bi-valent Nb24, product expressed by pGCB108-ITR130-AMDF1Nb24-5-(G4S)2-Nb24-7-HA (VHH)
chain: EVQLQESGGGLVQPGGSLRLSCTASGFTFDDPDVGWFRQAPGNECELVSTISKDGSTYYTDSVKGRFTISRDYAKNTVYLQMNSLRAEDTAVYYCAADSNPIAPIRTCLGWYNYWGQGTLVTVSSGGGGSGGGGSEVQLQESGGGLVQPGGSLRLSCTASGFTFDDPDVGWFRQAPGNECELVSTISKDGSTYYTDSVKGRFTISRDYAKNTVYLQMNSLRAEDTAVYYCAADSNPIAPIRTCLGWYNYWGQGTLVTVSSYPYDVPDYA
notes: also called 24-5-G4S2-24-7
The IC50 is the midpoint of a concentration-inhibition curve. As for B2, in assay [2], the IC50 was 25.6 nM and the “fold better IC50 than mono-valent Nb24” value is 5 fold.

B3: bi-valent Nb24, product expressed by pGCB108-ITR130-AMDF1Nb24-5-(G4S)2-Nb24-5-HA (VHH)
chain: EVQLQESGGGLVQPGGSLRLSCTASGFTFDDPDVGWFRQAPGNECELVSTISKDGSTYYTDSVKGRFTISRDYAKNTVYLQMNSLRAEDTAVYYCAADSNPIAPIRTCLGWYNYWGQGTLVTVSSGGGGSGGGGSEVQLQESGGGLVQPGGSLRLSCTASGFTFDDPDVGWFRQAPGNECELVSTISKDGSTYYTDSVKGRFTISRDYAKNTVYLQMNSLRAEDTAVYYCAADSNPIAPIRTCLGWYNYWGQGTLVTVSSYPYDVPDYA
notes: Two copies of Nb24 in a single polypeptide; supernatant of transfected Expi293 cells; also called 24-5-G4S2-24-5
In assay [1], B3 yielded an EC50 of 376 nM.

B4: bi-valent Nb24, product expressed by pGCB108-ITR130-AMDF1Nb24-5-(G4S)4-Nb24-5-HA (VHH)
chain: EVQLQESGGGLVQPGGSLRLSCTASGFTFDDPDVGWFRQAPGNECELVSTISKDGSTYYTDSVKGRFTISRDYAKNTVYLQMNSLRAEDTAVYYCAADSNPIAPIRTCLGWYNYWGQGTLVTVSSGGGGSGGGGSGGGGSGGGGSEVQLQESGGGLVQPGGSLRLSCTASGFTFDDPDVGWFRQAPGNECELVSTISKDGSTYYTDSVKGRFTISRDYAKNTVYLQMNSLRAEDTAVYYCAADSNPIAPIRTCLGWYNYWGQGTLVTVSSYPYDVPDYA
notes: Two copies of Nb24 in a single polypeptide; supernatant of transfected Expi293 cells; also called 24-5-G4S4-24-5
B4 showed an EC50 in assay [1] of 464 nM.

B5: Beovu-scFv with HA tag, product expressed by pGCB108-ITR130-AMDF1-Beovu-scFv (scFv)
scFv: EIVMTQSPSTLSASVGDRVIITCQASEIIHSWLAWYQQKPGKAPKLLIYLASTLASGVPSRFSGSGSGAEFTLTISSLQPDDFATYYCQNVYLASTNGANFGQGTKLTVLGGGGGSGGGGSGGGGSGGGGSEVQLVESGGGLVQPGGSLRLSCTASGFSLTDYYYMTWVRQAPGKGLEWVGFIDPDDDPYYATWAKGRFTISRDNSKNTLYLQMNSLRAEDTAVYYCAGGDHNSGWGLDIWGQGTLVTVSSYPYDVPDYA
notes: Benchmark anti-VEGF scFv; supernatant of transfected Expi293 cells; also called Beovu-scFv-HA; F1F3-HA
Take B5: the binding result in assay [3] is reported as “binds”.

B6: mono-valent Nb24 with HA tag, product expressed by pGCB108-ITR130-AMDF1huNb24-5-hGHpA (VHH)
VHH: EVQLQESGGGLVQPGGSLRLSCTASGFTFDDPDVGWFRQAPGNECELVSTISKDGSTYYTDSVKGRFTISRDYAKNTVYLQMNSLRAEDTAVYYCAADSNPIAPIRTCLGWYNYWGQGTLVTVSS
notes: Used as supernatant of transfected Expi293 cells, detected by anti-HA; The junction between Nb24 and the HA tag is not spelled out; also called HuNb24-5-HA; Nb24-5-HA
B6 returned an IC50 in assay [2] of 132 nM.

B7: bi-valent Nb24, product expressed by pGCB108-ITR130-AMDF1Nb24-5-(G4S)3-Nb24-5-HA (VHH)
chain: EVQLQESGGGLVQPGGSLRLSCTASGFTFDDPDVGWFRQAPGNECELVSTISKDGSTYYTDSVKGRFTISRDYAKNTVYLQMNSLRAEDTAVYYCAADSNPIAPIRTCLGWYNYWGQGTLVTVSSGGGGSGGGGSGGGGSEVQLQESGGGLVQPGGSLRLSCTASGFTFDDPDVGWFRQAPGNECELVSTISKDGSTYYTDSVKGRFTISRDYAKNTVYLQMNSLRAEDTAVYYCAADSNPIAPIRTCLGWYNYWGQGTLVTVSSYPYDVPDYA
notes: Two copies of Nb24 in a single polypeptide; supernatant of transfected Expi293 cells; also called 24-5-G4S3-24-5
Turning to B7, in assay [1], a half-maximal effect (EC50) was put at 346 nM.
